Measured values from US20140363428A1 (Chugai, published 2014).
Positions count from the first letter of the chain named.

B1: Fv-4-F1107 (antibody, human IgG1, kappa)
heavy: QVQLQESGPGLVKPSETLSLTCAVSGHSISHDHAWSWVRQPPGEGLEWIGFISYSGITNYNPSLQGRVTISRDNSKNTLYLQMNSLRAEDTAVYYCARSLARTTAMDYWGEGTLVTVSSASTKGPSVFPLAPSSKSTSGGTAALGCLVKDYFPEPVTVSWNSGALTSGVHTFPAVLQSSGLYSLSSVVTVPSSSLGTQTYICNVNHKPSNTKVDKKVEPKSCDKTHTCPPCPAPELLGGPSVFLFPPKPKDTLYISRTPEVTCVVVDVSHEDPEVKFNWYVDGVEVHNAKTKPREEQYNSTYRVVSVLTVLHQDWLNGKEYKCKVSNKALPAPIEKTISKAKGQPREPQVYTLPPSRDELTKNQVSLTCLVKGFYPSDIAVEWESNGQPENNYKTTPPVLDSDGSFFLYSKLTVDKSRWQQGNDFSCSVMHEALHYHVTQKSLSLSP
light: DIQMTQSPSSLSASVGDSVTITCQASTDISSHLNWYQQKPGKAPELLIYYGSHLLSGVPSRFSGSGSGTDFTFTISSLEAEDAATYYCGQGNRLPYTFGQGTKVEIERTVAAPSVFIFPPSDEQLKSGTASVVCLLNNFYPREAKVQWKVDNALQSGNSQESVTEQDSKDSTYSLSSTLTLSKADYEKHKVYACEVTHQGLSSPVTKSFNRGEC
B2: Fv-4-F1058 (antibody, human IgG1, kappa)
heavy: B1 heavy with Q388E, D424V
light: B1 light
B3: Fv-4-F1059 (antibody, human IgG1, kappa)
heavy: B1 heavy with Q388R, D424V
light: B1 light
B4: Fv-4-F1113 (antibody)
heavy: B1 heavy with D424V, S442D
light: B1 light
B5: Fv-4-F1070 (antibody, human IgG1, kappa)
heavy: B1 heavy with D424V, Q440R
light: B1 light
B6: Fv-4-F1124 (antibody)
heavy: B1 heavy with T252V, T309Q, V310P, Q313A, D424V, Q440R, S442E
light: B1 light
B7: Fv-4-F1065 (antibody, human IgG1, kappa)
heavy: B1 heavy with D424R
light: B1 light
B8: Fv-4-F1066 (antibody, human IgG1, kappa)
heavy: B1 heavy with D424S
light: B1 light
B9: Fv-4-F1110 (antibody, human IgG1, kappa)
heavy: B1 heavy with D424Q
light: B1 light
B10: Fv-4-F1073 (antibody)
heavy: B1 heavy with D424V, S442R
light: B1 light
B11: Fv-4-F1072 (antibody)
heavy: B1 heavy with D424V, S442E
light: B1 light
B12: Fv-4-F1108 (antibody, human IgG1, kappa)
heavy: B1 heavy with D424K
light: B1 light
B13: Fv-4-F1109 (antibody, human IgG1, kappa)
heavy: B1 heavy with D424T
light: B1 light
B14: Fv-4-F1062 (antibody, human IgG1, kappa)
heavy: B1 heavy with P389R, D424V
light: B1 light
B15: Fv-4-F1230 (antibody)
heavy: B1 heavy with D424V, Q440R, S442D
light: B1 light
B16: Fv-4-F1106 (antibody)
heavy: B1 heavy with D424V, Q440R, S442E
light: B1 light
B17: Fv-4-F1105 (antibody, human IgG1, kappa)
heavy: B1 heavy with D424S, S426R
light: B1 light
B18: Fv-4-F1114 (antibody)
heavy: B1 heavy with D424V, S442Q
light: B1 light
B19: Fv-4-F1112 (antibody, human IgG1, kappa)
heavy: B1 heavy with D424V, Q440K
light: B1 light
B20: Fv-4-F1064 (antibody, human IgG1, kappa)
heavy: B1 heavy with D424E
light: B1 light
B21: Fv-4-F1104 (antibody, human IgG1, kappa)
heavy: B1 heavy with D424E, S426R
light: B1 light
B22: Fv-4-F1119 (antibody, human IgG1, kappa)
heavy: B1 heavy with T252V, T309Q, V310P, Q313A, D424E
light: B1 light
B23: Fv-4-F1111 (antibody, human IgG1, kappa)
heavy: B1 heavy with D424V, S426K
light: B1 light
B24: Fv-4-F1232 (antibody)
heavy: B1 heavy with D424V, Q440K, S442D
light: B1 light
B25: Fv-4-F947 (antibody, human IgG1, kappa)
heavy: B1 heavy with T252V, T309Q, V310P, Q313A, D424V
light: B1 light
B26: Fv-4-F1121 (antibody, human IgG1, kappa)
heavy: B1 heavy with T252V, T309Q, V310P, Q313A, D424E, S426R
light: B1 light
B27: Fv-4-F1068 (antibody, human IgG1, kappa)
heavy: B1 heavy with D424V, S426R
light: B1 light
B28: Fv-4-F1120 (antibody, human IgG1, kappa)
heavy: B1 heavy with T252V, T309Q, V310P, Q313A, D424V, S426R
light: B1 light
B29: Fv-4-F1123 (antibody)
heavy: B1 heavy with T252V, T309Q, V310P, Q313A, D424V, S442E
light: B1 light
B30: Fv-4-F1060 (antibody, human IgG1, kappa)
heavy: B1 heavy with Q388S, D424V
light: B1 light
B31: Fv-4-F1071 (antibody, human IgG1, kappa)
heavy: B1 heavy with D424V, Q440S
light: B1 light
B32: Fv-4-F1231 (antibody)
heavy: B1 heavy with D424V, Q440K, S442E
light: B1 light
B33: Fv-4-F1067 (antibody, human IgG1, kappa)
heavy: B1 heavy with D424V, S426E
light: B1 light
B34: Fv-4-F1063 (antibody, human IgG1, kappa)
heavy: B1 heavy with P389S, D424V
light: B1 light
B35: Fv-4-F1122 (antibody, human IgG1, kappa)
heavy: B1 heavy with T252V, T309Q, V310P, Q313A, D424V, Q440R
light: B1 light
B36: Fv-4-F1061 (antibody, human IgG1, kappa)
heavy: B1 heavy with P389E, D424V
light: B1 light
B37: Fv-4-F1069 (antibody, human IgG1, kappa)
heavy: B1 heavy with D424V, Q440E
light: B1 light
B38: IgG1-F1420 (antibody)
heavy: B1 heavy with L237R, S241K, D424V, H435D, Y436W, Q440K, S442E
light: not shown
B39: F1675 (antibody)
heavy: B1 heavy with L237R, S241K, Y254M, D424V, H435D
light: B1 light
B40: F1683 (antibody)
heavy: B1 heavy with L237R, S241K, Y254M, D424V, V438F, Q440R, S442E
light: B1 light
B41: F1681 (antibody)
heavy: B1 heavy with L237R, S241K, Y254M, D424V, V438T, Q440R, S442E
light: B1 light
B42: F1712 (antibody)
heavy: B1 heavy with L237R, S241K, Y254M, D424V, Q440K, S442E
light: B1 light
B43: F1670 (antibody)
heavy: B1 heavy with L237R, S241K, Y254M, D424V, Q440R, S442E
light: B1 light

Molecular target: T1, soluble human FcRn (human, UniProt P55899 24-297; P61769 21-119)
T1 construct: Heterodimer of alpha chain and beta2-microglobulin; also called hFcRn
Assay: SPR (Biacore), pH 7.0

T1 sequence (P55899 24-297 limits assumed, chain 1 of 2): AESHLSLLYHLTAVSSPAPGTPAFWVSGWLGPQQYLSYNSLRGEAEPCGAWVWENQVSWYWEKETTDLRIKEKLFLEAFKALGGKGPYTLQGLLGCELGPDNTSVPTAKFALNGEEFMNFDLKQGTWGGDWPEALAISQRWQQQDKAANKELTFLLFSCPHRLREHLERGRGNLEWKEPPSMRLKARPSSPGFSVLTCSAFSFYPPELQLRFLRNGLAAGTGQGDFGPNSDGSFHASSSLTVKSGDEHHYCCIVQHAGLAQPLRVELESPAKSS
T1 sequence (P61769 21-119 limits assumed, chain 2 of 2): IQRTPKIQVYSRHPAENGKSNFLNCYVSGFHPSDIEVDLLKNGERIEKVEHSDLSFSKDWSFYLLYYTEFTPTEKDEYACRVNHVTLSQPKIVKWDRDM

Binder	Kd [nM]
B1	120
B2	130
B3	140
B4	120
B5	170
B6	12
B7	140
B8	140
B9	130
B10	134
B11	130
B12	130
B13	130
B14	120
B15	112
B16	140
B17	150
B18	130
B19	120

Binder	Kd [nM]
B20	130
B21	180
B22	10
B23	160
B24	97.9
B25	11.1
B26	10
B27	170
B28	10
B29	9.5
B30	140
B31	120
B32	97.3
B33	130
B34	140
B35	14
B36	120
B37	140

Molecular target: T1, soluble human FcRn
Assay: SPR (Biacore), pH 7.0
Remark: another data set of the same source

Binder	Kd [nM]
B38	130

Molecular target: T1, soluble human FcRn
Assay: SPR (Biacore), pH 6.0

Binder	Kd [nM]
B39	97
B40	57
B41	84
B42	55
B43	64

Molecular target: T1, soluble human FcRn
Assay: SPR (Biacore), pH 7.0, 25 C;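 note: antibodies captured on a protein L-coated CM4 chip with human FcRn injected as analyte, KD obtained from ka and kd fitted to sensorgrams, in sodium phosphate buffer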
Procedure: An appropriate amount of protein L (ACTIGEN) was immobilized onto Sensor chip CM4 (GE Healthcare) by the amino coupling method, and the chip was allowed to capture an antibody of interest. Then, diluted FcRn solutions and running buffer (as a reference solution) were injected to allow human FcRn to interact with the antibody captured on the sensor chip. The running buffer used comprised 50 mmol/l sodium phosphate, 150 mmol/l NaCl, and 0.05% (w/v) Tween20 (pH 7.0). FcRn was diluted using each buffer. The chip was regenerated using 10 mmol/l glycine-HCl (pH 1.5). Assays were carried out exclusively at 25 degrees C. The association rate constant ka (1/Ms) and dissociation rate constant kd (1/s), both of which are kinetic parameters, were calculated based on the sensorgrams obtained in the assays, and KD (M) of each antibody for human FcRn was determined from these values. Each parameter was calculated using Biacore T100 Evaluation Software (GE Healthcare).

Binder	Kd [nM]
B38	130
